In test [1] the target is T1, DR5ECD-FcHistag (human).
T1 construct: 453 is the counted length of the printed entry; also called DR5ECD-FcHisCtag; DRSECD-FcHistag
Briefly: crossblock sandwich ELISA, antibody coated, competitor IgG1-DR5-chTRA8-F405L.

Test [2] addresses T1, DR5ECD-FcHistag. In words: crossblock sandwich ELISA, antibody coated, competitor IgG1-DR5-CONA-K409R.
Test [3] concerns the target T2, murine (Mus musculus) DR5, full-length (mouse, UniProt Q9QZM4 53-381).
T2 construct: also called mouse DR5
In words: flow cytometry on transfected CHO cells (FIG. 5D).

The target of test [4] is T3, human DR5 (death receptor 5), full-length (human, UniProt O14763 56-440).
T3 construct: also called TRAILR2; CD262
Briefly: flow cytometry on HCT 116 cells.

The target of test [5] is T1, DR5ECD-FcHistag. In words: crossblock sandwich ELISA, antibody coated, competitor IgG1-hDR5-01-E430G.
Test [6] deals with T4, cynomolgus monkey DR5 protein with deletion of amino acids 185-213 and death domain loss-of-function mutation … (cynomolgus monkey (Macaca fascicularis)).
T4 construct: Transiently expressed on CHO cells; also called Cyno DR5Mfdel-K420N; cynomolgus DR5-transfected CHO
T4 chain: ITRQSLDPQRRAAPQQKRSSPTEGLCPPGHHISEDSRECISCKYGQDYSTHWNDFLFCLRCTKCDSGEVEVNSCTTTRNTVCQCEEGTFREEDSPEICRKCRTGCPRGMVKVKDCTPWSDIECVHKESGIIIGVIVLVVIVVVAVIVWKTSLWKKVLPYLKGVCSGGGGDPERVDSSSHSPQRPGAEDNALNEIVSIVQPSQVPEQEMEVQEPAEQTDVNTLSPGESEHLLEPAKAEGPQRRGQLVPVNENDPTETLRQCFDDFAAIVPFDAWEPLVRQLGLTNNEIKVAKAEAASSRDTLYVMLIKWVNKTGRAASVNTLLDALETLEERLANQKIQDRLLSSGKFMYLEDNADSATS
In words: flow cytometry on cynomolgus DR5-transfected CHO cells, four experiments (SD 0.084).

B1: IgG1-DR5-CONA-K409R (antibody, V domains shown)
VH: QVQLQESGPGLVKPSQTLSLTCTVSGGSISSGDYFWSWIRQLPGKGLECIGHIHNSGTTYYNPSLKSRVTISVDTSKKQFSLRLSSVTAADTAVYYCARDRGGDYYYGMDVWGQGTTVTVSS
VL: EIVLTQSPGTLSLSPGERATLSCRASQGISRSYLAWYQQKPGQAPSLLIYGASSRATGIPDRFSGSGSGTDFTLTISRLEPEDFAVYYCQQFGSSPWTFGQGTKVEIK
notes: Expressed as IgG1,kappa with K409R (EU); also called IgG1-CONA-K409R; conatumumab variant
On to B1, for which the binding result with DR5ECD-FcHistag [1] is reported as “binds”.

B2: IgG1-DR5-chTRA8-F405L (antibody, name in EU numbering, V domains shown)
VH: EVMLVESGGGLVKPGGSLKLSCAASGFTFSSYVMSWVRQTPEKRLEWVATISSGGSYTYYPDSVKGRFTISRDNAKNTLYLQMSSLRSEDTAMYYCARRGDSMITTDYWGQGTTLTVSS
VL: DIVMTQSHKFMSTSVGDRVSITCKASQDVGTAVAWYQQKPGQSPKLLIYWASTRHTGVPDRFTGSGSGTDFTLTISNVQSEDLADYFCQQYSSYRTFGGGTKLEIKR
notes: F405L is counted by EU numbering; also called IgG1-chTRA8-F405L
Consider B2, for which the binding result with DR5ECD-FcHistag [2] is on record as “binds”.

B3: IgG1-hDR5-05-F405L (antibody, name in EU numbering)
heavy: not shown
light: DIQLTQSPSSLSASVGDRVTITCSASSSVSYMYWYQQKPGKAPKPWIYRTSNLASGVPSRFSGSGSGTDFTLTISSLQPEDFATYYCQQYHSYPPTFGGGTKVEIKRTVAAPSVFIFPPSDEQLKSGTASVVCLLNNFYPREAKVQWKVDNALQSGNSQESVTEQDSKDSTYSLSSTLTLSKADYEKHKVYACEVTHQGLSSPVTKSFNRGEC
notes: IgG1,kappa; F405L is counted by EU numbering, not on the entry; also called humanized DR5-05
Turning to B3, in test [3], the binding result is given as “no binding (tested: 10 µg/mL)”.

B4: IgG1-hDR5-05-N55D-F405L (antibody, V domains shown)
VH: QVQLVQSGAEVKKPGASVKVSCKASGFNIKDTHMHWVRQAPGQRLEWIGRIDPADGNTEYDQKFQGRVTITVDTSASTAYMELSSLRSEDTAVYYCARWGTNVYFAYWGQGTLVTVSS
VL: DIQLTQSPSSLSASVGDRVTITCSASSSVSYMYWYQQKPGKAPKPWIYRTSNLASGVPSRFSGSGSGTDFTLTISSLQPEDFATYYCQQYHSYPPTFGGGTKVEIKR
notes: IgG1,kappa; deamidation-mimicking variant
B4: the binding result in test [4] is recorded as “binds”.

B5: IgG1-hDR5-05-E430G (antibody)
heavy: not shown
light: DIQLTQSPSSLSASVGDRVTITCSASSSVSYMYWYQQKPGKAPKPWIYRTSNLASGVPSRFSGSGSGTDFTLTISSLQPEDFATYYCQQYHSYPPTFGGGTKVEIKRTVAAPSVFIFPPSDEQLKSGTASVVCLLNNFYPREAKVQWKVDNALQSGNSQESVTEQDSKDSTYSLSSTLTLSKADYEKHKVYACEVTHQGLSSPVTKSFNRGEC
notes: IgG1,kappa
For B5, the binding result with DR5ECD-FcHistag [5] is reported as “binds”. The molecule also registered an EC50 in test [6] of 0.17 mg/L.

The values are drawn from US20210324096A1 (Genmab, published 2021).
